Experimental data published in paper PMC9433394.

Target: chicken skeletal muscle actin (chicken) (UniProt P68139)
Assay: SEC; 20 uM chicken G-actin mixed with 2DGel at ratios 1:1, 1:2 and 2:1 in 1X KMI-Ca buffer (50 mM KCl, 10 mM imidazole, 1 mM MgCl2, 1 mM CaCl2), 30 min, Enrich SEC 650; peak fractions analysed by SDS-PAGE

MKD1-2DGel (two-domain gelsolin of Candidatus Prometheoarchaeum syntrophicum MK-D1) (natural protein)
stoichiometry N (actin per MKD1-2DGel): 2

Heim2DGel (two-domain gelsolin of Heimdallarchaeota LC_3) (natural protein)
stoichiometry N (actin per Heim2DGel): 1
